What was measured:
AimR (phi3T) = molecular target: T1, AimR (phi3T) (Bacillus phage phi3T, UniProt P0DOE3 1-378); experiment: EMSA; EMSA: 50 mM HEPES pH 7.5, 5 mM MgCl2, 75 mM NaCl, 0.5 mM EDTA; 0.4 uM DNA, 4 uM AimR; 10 min at room temperature; 8% PAGE in TBE at 4 C or agarose in TAE at room temperature; details: protein: recombinant; tags: N-terminal 6xHis; same purification protocol as SPbeta AimR
T1 sequence: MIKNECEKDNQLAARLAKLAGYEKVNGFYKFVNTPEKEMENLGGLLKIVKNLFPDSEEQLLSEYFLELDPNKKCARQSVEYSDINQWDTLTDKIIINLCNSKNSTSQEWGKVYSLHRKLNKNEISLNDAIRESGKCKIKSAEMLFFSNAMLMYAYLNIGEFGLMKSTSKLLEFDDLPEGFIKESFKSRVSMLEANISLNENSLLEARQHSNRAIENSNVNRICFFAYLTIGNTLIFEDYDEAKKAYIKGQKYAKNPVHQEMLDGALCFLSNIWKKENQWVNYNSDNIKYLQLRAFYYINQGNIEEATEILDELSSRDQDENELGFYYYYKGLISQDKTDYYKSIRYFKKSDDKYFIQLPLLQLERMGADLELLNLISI

AimR (SPbeta) [1] = molecular target: T2, AimR (SPbeta) (Bacillus subtilis phage SPbeta (cloned …, UniProt O31927 1-386)); experiment: X-ray crystallography; 2.2 A; 200 mM MgCl2, pH 7.5; AimR:DNA 2:1; EMSA: 50 mM HEPES pH 7.5, 5 mM MgCl2, 75 mM NaCl, 0.5 mM EDTA; 0.4 uM DNA, 4 uM AimR; 10 min at room temperature; 8% PAGE in TBE at 4 C or agarose in TAE at room temperature; details: protein: recombinant; tags: N-terminal 6xHis-TEV, cleaved; chain copies: 2
T2 sequence: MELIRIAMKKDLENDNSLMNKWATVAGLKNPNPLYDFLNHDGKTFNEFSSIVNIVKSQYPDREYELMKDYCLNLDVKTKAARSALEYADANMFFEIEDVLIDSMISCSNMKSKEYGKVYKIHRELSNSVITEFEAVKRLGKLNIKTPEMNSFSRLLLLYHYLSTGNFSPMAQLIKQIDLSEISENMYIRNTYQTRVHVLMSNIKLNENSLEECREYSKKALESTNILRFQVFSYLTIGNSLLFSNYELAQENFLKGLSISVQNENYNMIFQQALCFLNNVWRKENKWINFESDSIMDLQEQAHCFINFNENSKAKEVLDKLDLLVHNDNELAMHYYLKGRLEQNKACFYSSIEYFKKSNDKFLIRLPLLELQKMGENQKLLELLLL

AimR (SPbeta) [2] = molecular target: T2, AimR (SPbeta); experiment: EMSA; apo; EMSA: 50 mM HEPES pH 7.5, 5 mM MgCl2, 75 mM NaCl, 0.5 mM EDTA; 0.4 uM DNA, 4 uM AimR; 10 min at room temperature; 8% PAGE in TBE at 4 C or agarose in TAE at room temperature; details: protein: recombinant; tags: N-terminal 6xHis-TEV, cleaved; chain copies: 2

B1: phi3T operator 37 bp (dsDNA)
DNA 1: ATGTTCCAGAAATTCAAAAATCAAAAAATAAGAACAT
DNA 2: ATGTTCTTATTTTTTGATTTTTGAATTTCTGGAACAT
AimR (phi3T)
  binding result: binds

B2: crystal operator 43 bp (dsDNA)
DNA 1: TTGATCACTAGATGTTATTAAAACCTAATATTTAAGTGATGGC
DNA 2: GCCATCACTTAAATATTAGGTTTTAATAACATCTAGTGATCAA
AimR (SPbeta) [1]
  binding result: binds

B3: SPbeta operator WT 45 bp (dsDNA)
DNA 1: GTTGATCACTAGATGTTATTAAAACCTAATATTTAAGTGATGGCC
DNA 2: GGCCATCACTTAAATATTAGGTTTTAATAACATCTAGTGATCAAC
AimR (SPbeta) [2]
  binding result: binds
